The nature of this data set: protein stability index of a GFP-peptide fusion (GPS, HEK-293T) (PSI 1-6); higher = more stable.
Where [1] appears, read: treatment: DMSO, c terminus: a fixed tail appended.
The mark [2] stands for this setting: treatment: MLN4924 1 uM, 8 h, c terminus: a fixed tail appended.

This is an account of results in the supplement of paper PMC10567573.

± gives the standard deviation.
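Note: 24-mer peptide tiles fused after GFP, lentivirally expressed, FACS-sorted into six equal bins by GFP/DsRed ratio, decoded by Illumina sequencing, PSI is the read-weighted mean bin number.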

For the sequence ALALQARGCSVKIWTAHYDPGHCF [ALG2], the protein stability index runs as follows: under setting [1], 2.25 ± 0.41; under setting [2], 2.23 ± 0.26. The like results for APKAGLEEAPAVTAGLKIFEPPAP [TNFSF13B] were, in that order, 4.6 ± 0.26 and 4.68 ± 0.086. HVLPAVLAEVAPVVTTEHILVSVA [PYCR3]: the protein stability index runs as follows: under setting [1], 2.65 ± 0.63; under setting [2], 2.8 ± 0.72.

As to GMAFFKMREMFFEDHIDDAKYCGH [CNOT7], the protein stability index was determined as 2.35 ± 0.2 under setting [1] and 2.36 ± 0.16 under setting [2]. The like results for EAIPILRAALKLEPSNKTIHAELS [FKBP8] were, in that order, 2.49 ± 0.32 and 2.65 ± 0.14. Taken in the same sequence, the figures for DDVEVLTLKKFKGDLAYRRQEYQK [C8orf76] were 3.78 ± 0.18 and 3.92 ± 0.31. On to AKGLAESLELPKAIQDQLPRLQQL [FANCE], for which the protein stability index by setting is: under setting [1], 3.95 ± 0.12; under setting [2], 4.15 ± 0.3. Taken in the same sequence, the figures for THLEAQNRIKGCHDHLTLSVSRPE [PDLIM4] were 3.57 ± 0.18 and 3.66 ± 0.23. KKQDENEGIKVEDLLFIVDTMLEE [CEP70]: the protein stability index is, setting by setting: under setting [1], 3.25 ± 0.22; under setting [2], 3.27 ± 0.23. For the sequence RRHPGLGKAFPSGCSAVSEPASES [TRAF3IP2], the protein stability index came out at 4.31 ± 0.18 under setting [1] and 4.3 ± 0.41 under setting [2]. On to ERMTTREKKVLEAGMGKVTSASFG [HDAC6], for which the protein stability index reads like this: under setting [1], 4.1 ± 0.14; under setting [2], 4.19 ± 0.14. WPRNPPSRLLGAAAGQRSRPSTYY [DNAJC4]: the protein stability index under setting [1] worked out at 3.24 ± 0.25 and the protein stability index under setting [2] came to 3.67 ± 0.4. Regarding DETLSSSHQKCPQLGGPEASGGLV [PLEKHN1], the protein stability index reads like this: under setting [1], 4.97 ± 0.1; under setting [2], 4.8 ± 0.31. The like results for GKAYGWCSELIRHRRVHARKEPSH [ZNF232] were, in that order, 3.23 ± 0.17 and 3.26 ± 0.38. In the case of KLGAPLSGLQGLPECTRCGHGIVG [PDLIM4], the protein stability index came out at 2.65 ± 0.25 under setting [1] and 2.75 ± 0.36 under setting [2].

LKPRPEPPKKPSNWRRKHEEFIAT [ZC2HC1A]: the protein stability index by setting is: under setting [1], 3.47 ± 0.22; under setting [2], 3.56 ± 0.17. The like results for QDLAFWYGPRWQEVIPYTPAMQRY [HMOX1] were, in that order, 2.29 ± 0.2 and 2.36 ± 0.33.

In the case of CGPPSLGAVLALVAIFIMSLNKRH [MFSD9], the protein stability index runs as follows: under setting [1], 3.3 ± 0.89; under setting [2], 3.41 ± 1.1. The like results for HHREGLLAIFKSGGIPALVKMLGS [CTNNB1] were, in that order, 2.82 ± 0.39 and 2.71 ± 0.64.

Consider SVNEHTEEGESLLCLACSAGYYEL [ANKRD17], for which the protein stability index under setting [1] was 2.64 ± 0.38 and the protein stability index under setting [2] worked out at 2.93 ± 0.29.

Turning to DRTWTLCGTPEYLAPEVIQSKGHG [PRKX], the protein stability index reads like this: under setting [1], 3.91 ± 0.48; under setting [2], 3.97 ± 0.35. The like results for DTGVGKSSIVWRFVEDSFDPNINP [RAB22A] were, in that order, 2.93 ± 0.28 and 3.08 ± 0.29.

Take VLCLLAADEDDDRDVALQIHFTLI [GADD45A]: the protein stability index is 3.49 ± 2.2 under setting [1] and 2.15 ± 1 under setting [2]. Turning to LVLKVLWNDFLMCYSSRPLLCWSV [SLC19A2], the protein stability index came out at 3.19 ± 0.48 under setting [1] and 3.45 ± 0.53 under setting [2]. Take RPATAADCSDILRLIKELAKYEYM [SAT1]: the protein stability index stood at 2.06 ± 0.14 under setting [1] and 2.48 ± 0.18 under setting [2].

On to PPAALESSDSANTTIEDEDAKARK [CAMK2B], for which the protein stability index under setting [1] turned out to be 5.65 ± 0.15 and the protein stability index under setting [2] was 5.7 ± 0.13. On to ELLTGQPLWPGKSDVDQLYLIIRT [CDKL4], for which the protein stability index was 2.31 ± 0.69 under setting [1] and 2.24 ± 0.43 under setting [2]. As for HLYAEPQKSPWCEARSLEHTLPVN [ESR2], the protein stability index is, setting by setting: under setting [1], 2.93 ± 0.23; under setting [2], 3.38 ± 0.24. Taken in the same sequence, the figures for NTLRCQLGDRLNVEVDAAPAVDLN [KRT33B] were 4.47 ± 0.19 and 4.39 ± 0.22. Taken in the same sequence, the figures for LLDRARGAAAQGQTQTVAAQAQAL [PI4K2A] were 4.3 ± 0.29 and 4.38 ± 0.2. Taken in the same sequence, the figures for KEDNSLLNQGFLQAKPEKAAVAQK [MYBL2] were 5.26 ± 0.12 and 5.14 ± 0.56.

As for KQQREKTRWLNSGRGDEASEEGQN [ADD1], the protein stability index reads like this: under setting [1], 5.54 ± 0.16; under setting [2], 5.48 ± 0.26. The like results for LCLQLRDDIVSGRLPCSFVTLALL [EPB41L3] were, in that order, 3.24 ± 0.61 and 2.23 ± 0.45. Take AQVLMLGQILELPWKEETFLVLQS [FANCE]: the protein stability index is, setting by setting: under setting [1], 2.47 ± 0.33; under setting [2], 2.65 ± 0.67. Taken in the same sequence, the figures for HHSRGNTNKFYMLDSRSTDRVLQW [KLHDC2] were 2.65 ± 0.39 and 2.72 ± 0.19. The like results for QVYYFGPCGKYNAMVLELLGPSLE [CSNK1G1] were, in that order, 3.52 ± 1.8 and 1.92 ± 0.25.

In the case of MGTSHGITRPSPRRSNSPDKFKRP [CCDC6], the protein stability index turned out to be 4.71 ± 0.087 under setting [1] and 4.89 ± 0.11 under setting [2]. IEIGCEDKTLAFKMNGYISNANYS [MLH1] returned a protein stability index under setting [1] of 2.34 ± 0.3. PFREQSFLCAAGDAGEESRVQVLK [TIAF1] gave a protein stability index under setting [1] of 4.54 ± 0.25 and a protein stability index under setting [2] of 4.6 ± 0.16. The like results for PCSGSVSLQPRRSIAFRLRLASFD [GMCL1] were, in that order, 2.58 ± 0.39 and 2.24 ± 0.27. Taken in the same sequence, the figures for KCCGMRNTDVSMENMVTVGFFSCM [KCNK9] were 2.59 ± 0.48 and 2.51 ± 0.44. Taken in the same sequence, the figures for VGYGDMYPVTIGGKIVGSLCAIAG [KCNA1] were 2.09 ± 0.55 and 2.45 ± 0.28. Regarding VGTRQNEELPCTCPLCTSDRGSCV [RHOBTB3], the protein stability index is, setting by setting: under setting [1], 4.77 ± 0.27; under setting [2], 4.93 ± 0.12. Taken in the same sequence, the figures for ILVMKHNYSQDAADACDIDEIEEV [NETO1] were 4.11 ± 0.16 and 4.18 ± 0.28. Taken in the same sequence, the figures for PQELINYVQTVDFMRTDNTCVNLL [KLHL13] were 2.46 ± 0.35 and 2.51 ± 0.42. The like results for SIHCLGPIKLELLEPKANLQAALQ [VPS39] were, in that order, 2.61 ± 0.34 and 2.45 ± 0.36. Consider LSPTQRQKNFELAFTMAENLANCE [SMTNL2], for which the protein stability index was 3.39 ± 0.19 under setting [1] and 3.67 ± 0.52 under setting [2].

As for DWGPCSGSCGQGRTIRHVYCKTSD [ADAMTSL2], the protein stability index was 3.43 ± 0.25 under setting [1] and 3.44 ± 0.33 under setting [2]. For SINALLQAEVLSRQITSPVSGING [HNF4A], the protein stability index under setting [1] worked out at 2.7 ± 0.13 and the protein stability index under setting [2] is 2.67 ± 0.2. GILRRILRTLRDFPAEERARVLDR [ANKRD9]: the protein stability index amounted to 2.39 ± 0.28 under setting [1] and 2.47 ± 0.65 under setting [2]. Taken in the same sequence, the figures for GGFGGGVGGGFGGGFGGGDGGLLS [KRT15] were 3.4 ± 0.71 and 3.98 ± 0.14. For the sequence GLRAATMSAVEAATCRAKELSRK [PYCR3], the protein stability index runs as follows: (treatment: DMSO, c terminus: native) 5.1 ± 0.95; (treatment: MLN4924 1 uM, 8 h, c terminus: native) 4.97 ± 0.18. Turning to TDPGDVPAFLKWLSLASLLVYVAA [SLC2A12], the protein stability index reads like this: under setting [1], 2.37 ± 0.39; under setting [2], 2.66 ± 1. With FFLAILSCSEICYTFIIVPKMLVD [OR10K2], the protein stability index worked out at 3.42 ± 0.36 under setting [1] and 2.89 ± 0.28 under setting [2]. SEEAVQKLATCYFFTVEFGLCKQD [TPH1]: the protein stability index is 2.3 ± 0.61 under setting [1] and 2.27 ± 0.13 under setting [2].

Take SGYALAEDGKRCVAVDYCASENHG [MATN2]: the protein stability index came to 4.28 ± 0.64 under setting [1] and 4.36 ± 0.21 under setting [2]. In the case of VQNGTYLQRVLQNCPWPMSCPGSS [EMID1], the protein stability index by setting is: under setting [1], 2.12 ± 0.36; under setting [2], 3.17 ± 1.1. Taken in the same sequence, the figures for EELTYIIKQDINSLNKQIAQLQDF [STX5] were 2.61 ± 0.21 and 2.85 ± 0.26. In the case of DKVRALEEANADLEVKIHDWYQKQ [KRT15], the protein stability index reads like this: under setting [1], 4.4 ± 0.24; under setting [2], 4.3 ± 0.36. Taken in the same sequence, the figures for CYRENTHQTLKCSALATQYMHCVN [CHCHD3] were 2.17 ± 0.47 and 2.26 ± 0.43. The like results for KKYVKGDVSLCRWHPKPYCQALPY [FBXO34] were, in that order, 2.31 ± 0.45 and 2.05 ± 0.28. Taken in the same sequence, the figures for PKKPIGGNIIAHASTTRLYLRKGR [RAD51] were 3.79 ± 0.29 and 3.74 ± 0.17. For the sequence GPGPQLRRGWRPSSREDSLEAGLP [CHGA], the protein stability index reads like this: under setting [1], 3.86 ± 0.14; under setting [2], 4.24 ± 0.31. On to LPFGPFNGTAWTYHSQDELGGFSH [PKD2L1], for which the protein stability index came to 2.41 ± 0.13 under setting [1] and 2.58 ± 0.18 under setting [2]. On to QSLTEDLEFRKSMYEEEINETRRK [LMNB1], for which the protein stability index is 4.99 ± 0.26 under setting [1] and 5.04 ± 0.18 under setting [2].

As to DLVQWTRHMEAVKAQLLEQAQGQL [SOAT2], the protein stability index is, setting by setting: under setting [1], 2.62 ± 0.56; under setting [2], 2.69 ± 0.24. Taken in the same sequence, the figures for LPKELPADAVNLTIPASLDLSPLL [PLAGL1] were 3.32 ± 0.19 and 3.48 ± 0.28.

Take FEFEVRVCDSCHEAITDEERAPTA [WDFY2]: the protein stability index runs as follows: under setting [1], 3.48 ± 0.33; under setting [2], 3.57 ± 0.086. In the case of GDLAYRRQEYQKALQEYSSISEKL [C8orf76], the protein stability index by setting is: under setting [1], 4.14 ± 0.25; under setting [2], 4.16 ± 0.2. Taken in the same sequence, the figures for SSEKLNLQKDLETRPTQHELRLYK [CEP70] were 4.12 ± 0.16 and 4.1 ± 0.36. The like results for MYLSPPSIHCLGPIKLELLEPKAN [VPS39] were, in that order, 2.26 ± 0.38 and 2.41 ± 0.39. Regarding EEFAQAESKDQGKTLALARTMDIP [ALDH8A1], the protein stability index is 5.13 ± 0.19 under setting [1] and 5.38 ± 0.15 under setting [2].
